Patent publication US20120328512A1 (BRACCO IMAGING S P A, published 2012)
Bridge positions count the residues as written; N and C are the ends. Square brackets hold non-standard residues; d marks the D form. Ends that are not written are not given here. * marks the point of attachment. αGalNAc = CC(=O)N[C@@H]1[C@@H](O)[C@@H](O)[C@@H](CO)O[C@@H]1*; 5FAM = O=C1OC2(c3ccc(O)cc3Oc3cc(O)ccc32)c2ccc(C(=O)*)cc21; Phe(3,4-F2) = N[C@@H](Cc1ccc(F)c(F)c1)C(=O)O; Thf2ca = tetrahydrofuran-2-carboxylic acid; Phe(4-F) = N[C@@H](Cc1ccc(F)cc1)C(=O)O; Cha = N[C@@H](CC1CCCCC1)C(=O)O; CF5 = 5-carboxyfluorescein

B1: Seq056-CF5 (peptide)
peptide: RWQPCPAESWTFCWDPGGGK(5FAM)-NH2
modifications: disulfide 5-13; N-terminus assumed
SMILES: C[C@@H]1NC(=O)[C@@H]2CCCN2C(=O)[C@@H](NC(=O)[C@@H]2CCCN2C(=O)[C@H](CCC(N)=O)NC(=O)[C@H](Cc2c[nH]c3ccccc23)NC(=O)[C@@H](N)CCCNC(=N)N)CSSC[C@@H](C(=O)N[C@@H](Cc2c[nH]c3ccccc23)C(=O)N[C@@H](CC(=O)O)C(=O)N2CCC[C@H]2C(=O)NCC(=O)NCC(=O)NCC(=O)N[C@@H](CCCCNC(=O)c2ccc3c(c2)C(=O)OC32c3ccc(O)cc3Oc3cc(O)ccc32)C(N)=O)NC(=O)[C@H](Cc2ccccc2)NC(=O)[C@H]([C@@H](C)O)NC(=O)[C@H](Cc2c[nH]c3ccccc23)NC(=O)[C@H](CO)NC(=O)[C@H](CCC(=O)O)NC1=O
B2: Seq038-CF5 (peptide)
peptide: H-GWQPCPAESWTFCWDPGGGK(5FAM)-NH2
modifications: disulfide 5-13
SMILES: C[C@@H]1NC(=O)[C@@H]2CCCN2C(=O)[C@@H](NC(=O)[C@@H]2CCCN2C(=O)[C@H](CCC(N)=O)NC(=O)[C@H](Cc2c[nH]c3ccccc23)NC(=O)CN)CSSC[C@@H](C(=O)N[C@@H](Cc2c[nH]c3ccccc23)C(=O)N[C@@H](CC(=O)O)C(=O)N2CCC[C@H]2C(=O)NCC(=O)NCC(=O)NCC(=O)N[C@@H](CCCCNC(=O)c2ccc3c(c2)C(=O)OC32c3ccc(O)cc3Oc3cc(O)ccc32)C(N)=O)NC(=O)[C@H](Cc2ccccc2)NC(=O)[C@H]([C@@H](C)O)NC(=O)[C@H](Cc2c[nH]c3ccccc23)NC(=O)[C@H](CO)NC(=O)[C@H](CCC(=O)O)NC1=O
B3: Seq023-CF5 (peptide)
peptide: H-RWQPCPWESWTFCWDPGGGK(5FAM)-NH2
modifications: disulfide 5-13
SMILES: C[C@@H](O)[C@@H]1NC(=O)[C@H](Cc2c[nH]c3ccccc23)NC(=O)[C@H](CO)NC(=O)[C@H](CCC(=O)O)NC(=O)[C@H](Cc2c[nH]c3ccccc23)NC(=O)[C@@H]2CCCN2C(=O)[C@@H](NC(=O)[C@@H]2CCCN2C(=O)[C@H](CCC(N)=O)NC(=O)[C@H](Cc2c[nH]c3ccccc23)NC(=O)[C@@H](N)CCCNC(=N)N)CSSC[C@@H](C(=O)N[C@@H](Cc2c[nH]c3ccccc23)C(=O)N[C@@H](CC(=O)O)C(=O)N2CCC[C@H]2C(=O)NCC(=O)NCC(=O)NCC(=O)N[C@@H](CCCCNC(=O)c2ccc3c(c2)C(=O)OC32c3ccc(O)cc3Oc3cc(O)ccc32)C(N)=O)NC(=O)[C@H](Cc2ccccc2)NC1=O
B4: Seq039-CF5 (peptide)
peptide: Ac-GWQPCPAESWTFCWDPGGGK(5FAM)-NH2
modifications: disulfide 5-13
SMILES: CC(=O)NCC(=O)N[C@@H](Cc1c[nH]c2ccccc12)C(=O)N[C@@H](CCC(N)=O)C(=O)N1CCC[C@H]1C(=O)N[C@H]1CSSC[C@@H](C(=O)N[C@@H](Cc2c[nH]c3ccccc23)C(=O)N[C@@H](CC(=O)O)C(=O)N2CCC[C@H]2C(=O)NCC(=O)NCC(=O)NCC(=O)N[C@@H](CCCCNC(=O)c2ccc3c(c2)C(=O)OC32c3ccc(O)cc3Oc3cc(O)ccc32)C(N)=O)NC(=O)[C@H](Cc2ccccc2)NC(=O)[C@H]([C@@H](C)O)NC(=O)[C@H](Cc2c[nH]c3ccccc23)NC(=O)[C@H](CO)NC(=O)[C@H](CCC(=O)O)NC(=O)[C@H](C)NC(=O)[C@@H]2CCCN2C1=O
B5: Seq022-CF5 (peptide)
peptide: H-RGWQPCPWESWTFCWDPGGGK(5FAM)-NH2
modifications: disulfide 6-14
SMILES: C[C@@H](O)[C@@H]1NC(=O)[C@H](Cc2c[nH]c3ccccc23)NC(=O)[C@H](CO)NC(=O)[C@H](CCC(=O)O)NC(=O)[C@H](Cc2c[nH]c3ccccc23)NC(=O)[C@@H]2CCCN2C(=O)[C@@H](NC(=O)[C@@H]2CCCN2C(=O)[C@H](CCC(N)=O)NC(=O)[C@H](Cc2c[nH]c3ccccc23)NC(=O)CNC(=O)[C@@H](N)CCCNC(=N)N)CSSC[C@@H](C(=O)N[C@@H](Cc2c[nH]c3ccccc23)C(=O)N[C@@H](CC(=O)O)C(=O)N2CCC[C@H]2C(=O)NCC(=O)NCC(=O)NCC(=O)N[C@@H](CCCCNC(=O)c2ccc3c(c2)C(=O)OC32c3ccc(O)cc3Oc3cc(O)ccc32)C(N)=O)NC(=O)[C@H](Cc2ccccc2)NC1=O
B6: Seq048-CF5 (peptide)
peptide: Ac-RWQPCPWESWTFCWDPGGGK(5FAM)-NH2
modifications: disulfide 5-13
SMILES: CC(=O)N[C@@H](CCCNC(=N)N)C(=O)N[C@@H](Cc1c[nH]c2ccccc12)C(=O)N[C@@H](CCC(N)=O)C(=O)N1CCC[C@H]1C(=O)N[C@H]1CSSC[C@@H](C(=O)N[C@@H](Cc2c[nH]c3ccccc23)C(=O)N[C@@H](CC(=O)O)C(=O)N2CCC[C@H]2C(=O)NCC(=O)NCC(=O)NCC(=O)N[C@@H](CCCCNC(=O)c2ccc3c(c2)C(=O)OC32c3ccc(O)cc3Oc3cc(O)ccc32)C(N)=O)NC(=O)[C@H](Cc2ccccc2)NC(=O)[C@H]([C@@H](C)O)NC(=O)[C@H](Cc2c[nH]c3ccccc23)NC(=O)[C@H](CO)NC(=O)[C@H](CCC(=O)O)NC(=O)[C@H](Cc2c[nH]c3ccccc23)NC(=O)[C@@H]2CCCN2C1=O

Each binder was assayed against DDE (assay: direct binding fluorescence polarization: CF5-labeled peptide titrated with DDE; n = 2).

Kd | Binder
200 nM | Ac-WQPCPWESWT[Cha]CWDPGGGK(CF5)-NH2 (disulfide 4-12) [Seq018-CF5]
60 nM | B1
60 nM | GWQPCPAESWT[Cha]CWDPGGGK(CF5)-NH2 (disulfide 5-13) [Seq051-CF5]
240 nM | B2
1020 nM | Ac-WQPCPWESWT[Phe(4-F)]CWDPGGGK(CF5)-NH2 (disulfide 4-12) [Seq019-CF5]
50 nM | RGWQPCPAESWT[Cha]CWDPGGGK(CF5)-NH2 (disulfide 6-14) [Seq054-CF5]
1210 nM | Thf2ca-WQPCPWESWTFCWDPGGGK(CF5)-NH2 (disulfide 4-12) [Seq028-CF5]
110 nM | B3
100 nM | Ac-RGWQPCPAESWT[Cha]CWDPGGGK(CF5)-NH2 (disulfide 6-14) [Seq053-CF5]
700 nM | Ac-WQPCPWESWT[Phe(3,4-F2)]CWDPGGGK(CF5)-NH2 (disulfide 4-12) [Seq020-CF5]
240 nM | B4
80 nM | Ac-RWQPCPAESWT[Cha]CWDPGGGK(CF5)-NH2 (disulfide 5-13) [Seq050-CF5]
280 nM | B5
210 nM | Ac-RWQPCPAESWTFCWDPGGGK(5FAM)-NH2 (disulfide 5-13; not fully specified) [Seq049-CF5]
500 nM | Ac-S(αGalNAc)WQPCPWESWTFCWDPGGGK(CF5)-NH2 (disulfide 5-13) [Seq027-CF5]
530 nM | Ac-RGWQPCPWESWTFCWDPGGGK(5FAM)-NH2 (disulfide 6-14; not fully specified) [Seq052-CF5]
110 nM | B6
80 nM | Ac-GWQPCPAESWT[Cha]CWDPGGGK(CF5)-NH2 (disulfide 5-13) [Seq055-CF5]
